Test [1] addresses T1, recombinant human GPC3 (glypican-3) (human, UniProt P51654 25-559).
T1 construct: also called huGPC3; hGPC3
The test can be described thus: SPR (Biacore T200), antibody captured by anti-Fc, GPC3 injected.
Method: (§1) CM5 Series S sensor chip, Biacore™ amine coupling kit (NHS, EDC and 1 M ethanolamine), and 10 mM sodium acetate buffers were purchased from Cytiva Life Sciences (Mississauga, ON, Canada). PBS running buffer with 0.05% Tween20 (PBST) was purchased from Teknova Inc. (Hollister, CA). Antigens: recombinant human and cynomolgus GPC3 was purchased from ACROBiosystems (Newark, DE) and SEC purified on a Superdex 200 10/300 GL column (Cytiva) in PBST running buffer at 0.8 mL/min.
(§2) Screening of the antibodies for binding to GPC3 antigen was conducted via anti-Fc capture of antibodies, followed by the injection of five concentrations of GPC3. The anti-Fc surface was prepared on a CM5 Series S sensor chip by standard amine coupling methods as described by the manufacturer (Cytiva Life Sciences, Mississauga, ON, Canada). […] Approximately 150-400 RUs of each antibody (5-20 μg/mL) were captured on the goat anti-human IgG surface by injecting at 10 μL/min for 60s. Using single-cycle kinetics, five concentrations of a two-fold dilution series of human or cynomolgus GPC3 starting at 40 nM, 20 nM, 10 nM, or 5 nM depending on the antibody, with a blank buffer control were injected at 20 μL/min for 180s of contact time, followed by 180 s dissociation phase, resulting in sensorgrams with a buffer blank reference. The anti-Fc surface was regenerated to prepare for the next injection cycle by one pulse of 10 mM glycine/HCl pH 1.5 for 120 s at 40 μL/min. Blank-subtracted sensorgrams were analyzed and fit to the 1:1 Langmuir binding model using Biacore™ T200 Evaluation Software v3.2.

Test [2] concerns the target T1, recombinant human GPC3 (glypican-3). The test can be described thus: SPR (Biacore T200), antibody captured by anti-Fc, GPC3 injected, single-cycle kinetics, 1:1 fit; average. For orientation: SPR reads the build-up and loss of mass on a sensor chip optically.
Method: as §1, §2
Test [3] deals with T2, recombinant cynomolgus GPC3 (glypican-3) (cynomolgus monkey, UniProt A0A2K5VK50 24-558).
T2 construct: also called cynoGPC3
Described as above.
Method: as §1, §2

Test [4] has as its target T3, human glypican-3 (GPC3) (human, UniProt P51654 25-554). The test can be described thus: cell-based or functional assay.
The target of test [5] is T3, human glypican-3 (GPC3). The test can be described thus: flow cytometry on JHH-5 cells (GPC3-mid).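 Further: antibody binding to cells at 4 °C for 24 h, detected with anti-human AF647 as geometric mean fluorescence of live cells versus antibody concentration, fitted by specific binding with Hill slope.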 A general note: In flow cytometry, cells or beads pass a laser one at a time.
Method: (§3) Briefly, cells were seeded at 50,000 cells/well in V-bottom 96-well plates and treated with antibody for 24 hours at 4° C. to prevent internalization. […] Following incubation and washing, fluorescence was detected by flow cytometry on a BD LSRFortessa™ Cell Analyzer (BD Biosciences, Franklin Lake, NJ) with 1,000 minimum events collected per well. AF647/APC-A GeoMean (fluorescence signal geometric mean, proportional to anti-Human AF647 binding) in live cell population was plotted against antibody concentration using GraphPad Prism Version 9 (GraphPad Software, San Diego, CA). The Bmax, Curve Hill Slope (h) and Kd values were derived from the “Specific binding with Hill slope” nonlinear regression curve fit in GraphPad Prism Version 9.
For test [6], the target named is T3, human glypican-3 (GPC3). The test can be described thus: flow cytometry on JHH-7 cells (GPC3-high).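 Further: antibody binding at 4 °C for 24 h, detected with anti-human AF647 secondary, geometric mean fluorescence of live cells versus antibody concentration, fitted as specific binding with Hill slope.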
Method: as §3
Test [7] deals with T3, human glypican-3 (GPC3). The test can be described thus: flow cytometry on CHO-S cells transfected with human GPC3.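 Further: antibody binding to transiently transfected CHO-S cells after 24 hours at 4 °C, read as geometric mean fluorescence of anti-human AF647 in live cells, fitted against antibody concentration.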
Method: (§4) Briefly, CHO—S cells were transiently transfected for −24 hours with a pTT5-based expression plasmid encoding human GPC3 or cynomolgus monkey GPC3, 0.5 μg DNA per 1 million cells, using the Neon™ Transfection System (Thermo Fisher Scientific Corp., Waltham, MA), to transiently express human or cynomolgus monkey GPC3. Cells transfected with GFP were used as negative transfection controls. Following transfection, cells were seeded at 50,000 cells/well in V-bottom 96-well plates and treated with antibody for 24 hours at 4° C. to prevent internalization. […] Following incubation and washing, fluorescence was detected by flow cytometry on a BD LSRFortessa™ Cell Analyzer (BD Biosciences, Franklin Lake, NJ) with 1,000 minimum events collected per well. AF647/APC-A GeoMean (fluorescence signal geometric mean, proportional to anti-Human AF647 binding) in live cell population was plotted against antibody concentration using GraphPad Prism Version 9 (GraphPad Software, San Diego, CA). The Bmax and Kd values were derived from the “Specific binding with Hill slope” nonlinear regression curve fit in GraphPad Prism Version 9.
The target in test [8] is T4, cynomolgus monkey glypican-3 (GPC3) (cynomolgus monkey, UniProt A5A6P7 25-554 (Pan troglodytes entry)).
T4 construct: Transiently expressed on CHO-S cells; also called cynoGPC3; CynoGPC3-CHO
The test can be described thus: flow cytometry on CHO-S cells transfected with cynomolgus GPC3.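 Further: antibodies incubated 24 h at 4 °C with transiently transfected cells, binding read as AF647 geometric mean fluorescence of live cells, GFP-transfected cells as negative control, Hill-slope specific-binding fit.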
Method: as §4

Test [9] concerns the target T2, recombinant cynomolgus GPC3 (glypican-3). The test can be described thus: SPR; Kd on human GPC3 divided by Kd on cynomolgus GPC3.
Method: as §1, §2

This note sets out measurements from patent publication US20250295799A1 (Zymeworks, published 2025).

B1: v38592, M3-H18L6 (WT) mAb (antibody, human IgG1, kappa)
heavy: not shown
light: EIVLTQSPATLSLSPGERATISCRSSQSLRHSNGNTYLQWYQQKPGQAPRLLIYKVSNRFSGVPARFSGSGSGTDFTLTISSLEPEDFAVYFCYQSKHVPYTFGGGTKVEIKRTVAAPSVFIFPPSDEQLKSGTASVVCLLNNFYPREAKVQWKVDNALQSGNSQESVTEQDSKDSTYSLSSTLTLSKADYEKHKVYACEVTHQGLSSPVTKSFNRGEC
notes: Same as v37574 but the heavy chain cDNA encodes a C-terminal lysine; also called wild-type M3-H18L6
Usually Kd stands for the free concentration of one partner at which half of the binding sites on the other are occupied at equilibrium, for simple one-to-one binding. Turning to B1, the “Avg % binding huGPC3 (RU observed/theoretical)” value in [1] came out at 51.9%. Also, the Kd in test [2] was determined as 7.14 nM; in [3], 4.54 nM.

B2: H18L6_LC_G34S mAb, v40210 (antibody, human IgG1, kappa, V domains shown)
VH: QVQLVQSGAEVKKPGSSVKVSCKASGYTFTDYEMHWVKQAPGHGLEWIGAIDPETGDTAYNQKFKGKATLTADTSTSTAYMELSSLRSEDTAVYYCTRYFSFAYWGQGTLVTVSS
VL: EIVLTQSPATLSLSPGERATISCRSSQSLRHSNSNTYLQWYQQKPGQAPRLLIYKVSNRFSGVPARFSGSGSGTDFTLTISSLEPEDFAVYFCYQSKHVPYTFGGGTKVEIKR
notes: M3-H18L6 chains with the stated light chain point mutation, IgG1/kappa
With B2, the “JHH-5 Internalization (MFI)” value with human glypican-3 (GPC3) [4] is 8950 MFI. In addition, the “JHH-7 Internalization (MFI)” value with human glypican-3 (GPC3) [4] amounted to 8900 MFI. Also, the “Bmax (MFI)” value with human glypican-3 (GPC3) [5] came to 4140 MFI; in the test with human glypican-3 (GPC3) [6] it was 10600 MFI; with human glypican-3 (GPC3) [7], 2360 MFI; in test [8], 2970 MFI. Further, the Kd was found to be 0.1 nM with human glypican-3 (GPC3) [5], 0.42 nM in the test with human glypican-3 (GPC3) [6], 0.06 nM with human glypican-3 (GPC3) [7] and 0.09 nM in test [8].

B3: v40203, H18L6_LC_G34D mAb (antibody, human IgG1, kappa, V domains shown)
VH: QVQLVQSGAEVKKPGSSVKVSCKASGYTFTDYEMHWVKQAPGHGLEWIGAIDPETGDTAYNQKFKGKATLTADTSTSTAYMELSSLRSEDTAVYYCTRYFSFAYWGQGTLVTVSS
VL: EIVLTQSPATLSLSPGERATISCRSSQSLRHSNDNTYLQWYQQKPGQAPRLLIYKVSNRFSGVPARFSGSGSGTDFTLTISSLEPEDFAVYFCYQSKHVPYTFGGGTKVEIKR
As to B3, the “Kd Fold difference (hu/cyno)” value in [9] was 1.2 fold. In test [1], the “Avg % binding huGPC3 (RU observed/theoretical)” value stood at 44.1%. Also, the Kd in test [2] turned out to be 13.7 nM; in test [3], 11.5 nM.

B4: H18L6_LC_G34V mAb, v40211 (antibody, human IgG1, kappa, V domains shown)
VH: QVQLVQSGAEVKKPGSSVKVSCKASGYTFTDYEMHWVKQAPGHGLEWIGAIDPETGDTAYNQKFKGKATLTADTSTSTAYMELSSLRSEDTAVYYCTRYFSFAYWGQGTLVTVSS
VL: EIVLTQSPATLSLSPGERATISCRSSQSLRHSNVNTYLQWYQQKPGQAPRLLIYKVSNRFSGVPARFSGSGSGTDFTLTISSLEPEDFAVYFCYQSKHVPYTFGGGTKVEIKR
notes: as for B2
In the case of B4, the “JHH-5 Internalization (MFI)” value in the test with human glypican-3 (GPC3) [4] came out at 3560 MFI. In addition, the “JHH-7 Internalization (MFI)” value with human glypican-3 (GPC3) [4] is 3330 MFI. For the same molecule, the “Bmax (MFI)” value in the test with human glypican-3 (GPC3) [5] worked out at 2940 MFI; with human glypican-3 (GPC3) [6], 7420 MFI; with human glypican-3 (GPC3) [7], 2100 MFI; in [8], 2640 MFI. Moreover, the Kd was found to be 0.24 nM with human glypican-3 (GPC3) [5], 0.4 nM with human glypican-3 (GPC3) [6], 0.11 nM in the test with human glypican-3 (GPC3) [7] and 0.17 nM in test [8].

B5: H18L6_LC_G34T mAb, v40209 (antibody, human IgG1, kappa, V domains shown)
VH: QVQLVQSGAEVKKPGSSVKVSCKASGYTFTDYEMHWVKQAPGHGLEWIGAIDPETGDTAYNQKFKGKATLTADTSTSTAYMELSSLRSEDTAVYYCTRYFSFAYWGQGTLVTVSS
VL: EIVLTQSPATLSLSPGERATISCRSSQSLRHSNTNTYLQWYQQKPGQAPRLLIYKVSNRFSGVPARFSGSGSGTDFTLTISSLEPEDFAVYFCYQSKHVPYTFGGGTKVEIKR
notes: as for B2
With B5, in the test with human glypican-3 (GPC3) [4], the “JHH-5 Internalization (MFI)” value amounted to 9280 MFI. In the test with human glypican-3 (GPC3) [4], the “JHH-7 Internalization (MFI)” value came out at 9040 MFI. In addition, the “Bmax (MFI)” value in the test with human glypican-3 (GPC3) [5] came out at 4130 MFI; with human glypican-3 (GPC3) [6] it was 10900 MFI; with human glypican-3 (GPC3) [7], 2320 MFI; in test [8], 2840 MFI. Moreover, the dissociation constant (Kd) with human glypican-3 (GPC3) [5] is 0.11 nM; with human glypican-3 (GPC3) [6], 0.42 nM; with human glypican-3 (GPC3) [7] it was 0.11 nM; in test [8] it was 0.14 nM.
